Assay results taken from US10357539B2, “Use of peptides that block metadherin-SND1 interaction as treatment for cancer” (THE TRUSTEES OF PRINCETON UNIVERSITY, priority 2014, dated 2019).

Experiments:
PyMT;Mtdh−/− pMECs = experiment: CPT-induced apoptosis of MECs (PI and Hoechst staining); assay type: cell-based, mouse; conditions: CPT to induce DNA replication stress
Description: (§1) FIGS. 9A-I illustrates that MTDH confers survival advantage by interacting with and stabilizing pro-survival protein SND1 under stress. (FIG. 9A) Quantification of cleaved caspase 3-positive MECs from normal or MMTV-PyMT preneoplastic glands (n>3) of WT (left column) or KO females (right column). (FIG. 9B) The effect of CPT on the apoptosis of PyMT;Mtdh−/− pMECs reconstituted with indicated Mtdh constructs (left column: VEC; middle column: WT; right column: W391D) was determined by PI and Hoechst staining. (FIG. 9C) The effect of CPT on the apoptosis of control (left column) or SND1-KD (right column) PyMT;Mtdh+/+ pMECs. (FIG. 9D) Protein levels of SND1 and β-actin (loading control) in control or MTDH-KD PyMT;Mtdh+/+ pMECs treated with CPT at indicated concentrations for 36 hours. Degradation curve (right) represents the average of 3 independent experiments. (FIG. 9E) Western blotting of SND1, MTDH and β-actin (loading control) in PyMT;Mtdh−/− MECs reconstituted with indicated constructs after CPT treatment for 48 hours. Degradation curves (right) represent average of 3 independent experiments. […] Z scores were calculated based on gene expression changes and gene functions as specified by the ingenuity knowledge base. […]

SND1 [1] = experiment: SND1 protein levels in MECs treated with CPT (western blot); assay type: cell-based, mouse; conditions: PyMT;Mtdh+/+ pMECs, CPT at indicated concentrations for 36 hours
Description: as §1

SND1 [2] = molecular target: T1, SND1 (Homo sapiens, UniProt Q7KZF4); experiment: GST-mediated pull-down of SND1 by GST-tagged MTDH fragments and mutants; assay type: binding; conditions: His6-SND1ΔC (1-339); Coomassie blue staining
T1 construct: 15 μg of His-SND1 (16-339) was added to the resin; made in house; host or cells: E. coli DH5α
T1 sequence (Q7KZF4 1-339): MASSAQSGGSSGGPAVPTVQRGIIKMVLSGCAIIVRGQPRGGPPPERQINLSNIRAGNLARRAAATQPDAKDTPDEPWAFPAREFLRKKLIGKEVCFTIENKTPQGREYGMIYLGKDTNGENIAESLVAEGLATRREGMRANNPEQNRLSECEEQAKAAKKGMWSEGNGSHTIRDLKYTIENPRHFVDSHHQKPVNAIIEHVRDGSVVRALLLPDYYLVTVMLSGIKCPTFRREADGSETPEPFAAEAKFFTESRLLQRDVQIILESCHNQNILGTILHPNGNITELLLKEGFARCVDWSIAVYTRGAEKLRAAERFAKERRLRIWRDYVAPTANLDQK
Procedure, shortened: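 GST-MTDH fragments or mutants (~20 μg) on glutathione resin incubated with 15 μg His-SND1 (16-339) in 25 mM Tris pH 8.0, 150 mM NaCl, 3 mM DTT plus 2 mg/ml BSA. Bound protein resolved by SDS-PAGE, Coomassie-stained; bound SND1 ratio quantified by densitometry over 3 repeats.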

SND1 [3] = molecular target: T2, SND1 (Homo sapiens, UniProt Q7KZF4); experiment: Co-immunoprecipitation of full-length Myc-MTDH (WT or mutant) and HA-SND1 in HEK293T cells; assay type: cell-based; conditions: HEK293T cell lysates, immunoprecipitation and immunoblot
T2 construct: Full-length HA-tagged SND1 was co-expressed with full-length Myc-tagged wild-type (WT) or mutant MTDH in HEK293T cells; expressed in transfected cells; host or cells: HEK293T
T2 sequence (Q7KZF4 1-910): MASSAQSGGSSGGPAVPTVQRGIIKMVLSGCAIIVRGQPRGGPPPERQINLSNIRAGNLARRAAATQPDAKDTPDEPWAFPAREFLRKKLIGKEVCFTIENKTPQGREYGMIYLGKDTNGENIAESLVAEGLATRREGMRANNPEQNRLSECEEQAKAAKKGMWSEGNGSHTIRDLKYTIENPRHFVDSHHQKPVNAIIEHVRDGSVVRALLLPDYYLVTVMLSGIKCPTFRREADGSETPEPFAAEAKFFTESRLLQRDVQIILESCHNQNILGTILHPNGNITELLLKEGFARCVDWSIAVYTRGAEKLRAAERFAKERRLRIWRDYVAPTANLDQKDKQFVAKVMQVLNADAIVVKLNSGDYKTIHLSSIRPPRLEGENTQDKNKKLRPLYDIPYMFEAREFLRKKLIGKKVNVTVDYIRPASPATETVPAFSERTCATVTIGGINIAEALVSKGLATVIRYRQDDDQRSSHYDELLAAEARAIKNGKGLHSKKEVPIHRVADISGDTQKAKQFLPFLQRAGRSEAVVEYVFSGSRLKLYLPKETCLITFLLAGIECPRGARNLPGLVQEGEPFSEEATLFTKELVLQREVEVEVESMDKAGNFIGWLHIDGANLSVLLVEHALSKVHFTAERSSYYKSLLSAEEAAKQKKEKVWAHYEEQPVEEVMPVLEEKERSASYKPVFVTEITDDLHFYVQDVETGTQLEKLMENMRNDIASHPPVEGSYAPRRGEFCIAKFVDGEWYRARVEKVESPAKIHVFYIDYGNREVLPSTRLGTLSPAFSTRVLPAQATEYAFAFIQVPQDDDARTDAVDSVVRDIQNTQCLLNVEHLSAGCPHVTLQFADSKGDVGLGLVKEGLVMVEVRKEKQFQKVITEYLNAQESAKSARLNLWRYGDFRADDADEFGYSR
Source text: (§2) FIGS. 7A-E represents determination of key regions and residues mediating the MTDH-SND1 interaction. (FIG. 7A) Schematics of MTDH fragments and mutants with indicated SND1-binding capability. + indicates binding and − indicates no binding based on results shown below. Two putative nuclear localization signals are residues 432-451 for NLS2 and residues 561-580 for NLS3. In the enlarged view of the minimal binding region 386-407, 9 residues were targeted for mutagenesis in the current study. […] (FIG. 7B) Pulldown of His6-SND1AC by GST-tagged MTDH fragments with indicated boundaries. The bound proteins were examined by SDS-PAGE and visualized by Coomassie blue staining. (FIG. 7C) Pulldown of His6-SND1ΔC by GST-tagged WT or triple mutant MTDH fragments (364-582). For (FIG. 7B) and (FIG. 7C), 1/10 of the His6-SND1ΔC input was shown, and GST alone was used as a negative control. Representative results of 3 independent experiments are shown. (FIG. 7D, FIG. 7E) Lysates from HEK293T cells expressing the indicated ectopic human SND1, AGO2 or MTDH were immunoprecipitated with anti-Myc and immunoblotted with the indicated antibodies.
(FIG. 22A) In vitro pull-down of SND1 (16-339) by GST-tagged MTDH (364-582) harboring WT or mutant sequence. The proteins bound to GS4B were examined on SDS-PAGE and visualized by Coomassie blue staining. (FIG. 22B) In vitro pull-down of WT and mutant SND1 (16-339) by GST-tagged MTDH (364-582). The bound proteins were examined as in (FIG. 22A). For both (FIG. 22A) and (FIG. 22B), experiments were repeated three times; representative results are shown. The normalized percentage of binding was averaged from three experiments; mean±SEM was shown below the data. (FIG. 22C) HEK293T cells were transfected with human HA-SND1, WT Myc-MTDH or Myc-MTDH with indicated single point mutation. Lysates were immunoprecipitated with anti-Myc antibody and immunoblotted with the indicated antibodies. (FIG. 22D) HEK293T cells were transfected with human Myc-MTDH, WT HA-SND1 or mutant HA-SND1 with indicated single point mutations or deletions. Lysates were immunoprecipitated with anti-Myc and immunoblotted with the indicated antibodies.
Immunoprecipitation and western blot For immunoprecipitation (IP) experiments, cultured cells were washed in cold PBS and lysed in lysis buffer (20 mM Tris pH 7.4, 0.15 M NaCl, 1 mM EDTA, 1 mM EGTA, 1% Tx-100, 0.0025 M Na2P2O7, 1 mM α-glycerolphosphate, 1 mM Na3VO4, and 1 mM NaF) with an EDTA-free protease inhibitor mixture (Roche Applied Science) and PMSF. Cell lysates were then incubated on ice for 10 min, centrifuged, and precleared by incubating with protein A/G beads (Santa Cruz Biotechnology) for 1 h at 4° C. For IP bead preparation, 30 μl of protein A/G beads were incubated with 5 μg of antibodies for 2 h at 4° C. IPs were carried out for overnight at 4° C., and beads were centrifuged, washed and subsequently boiled for 5 min in SDS protein loading buffer to elute bound protein. IP lysates were subjected to western blotting with indicated antibodies.
Immunoprecipitation and western blot: For in vivo immunoprecipitation (IP) experiments, cultured cells were washed in cold PBS and lysed in lysis buffer (20 mM Tris pH 7.4, 0.15 M NaCl, 1 mM EDTA, 1 mM EGTA, 1% Tx-100, 0.0025 M Na2P2O7, 1 mM β-glycerolphosphate, 1 mM Na3VO4, and 1 mM NaF) with an EDTA-free protease inhibitor mixture (Roche Applied Science) and PMSF. Cell lysates were then incubated on ice for 10 min, centrifuged, and precleared by incubating with protein A/G beads (Santa Cruz Biotechnology) for 1 h at 4° C. For IP bead preparation, 30 μl of protein A/G beads were incubated with 5 μg of antibodies for 2 h at 4° C. IPs were carried out for overnight at 4° C., and beads were centrifuged, washed and subsequently boiled for 5 min in SDS protein loading buffer to elute bound protein. IP lysates were subjected to western blotting with indicated antibodies.

AGO2 = molecular target: T3, AGO2 (Homo sapiens, UniProt Q9UKV8); experiment: Co-immunoprecipitation of Myc-MTDH mutants with AGO2 in HEK293T cells; assay type: cell-based; conditions: HEK293T cell lysates, anti-Myc immunoprecipitation
T3 construct: expressed in transfected cells; host or cells: HEK293T
T3 sequence (Q9UKV8 whole entry): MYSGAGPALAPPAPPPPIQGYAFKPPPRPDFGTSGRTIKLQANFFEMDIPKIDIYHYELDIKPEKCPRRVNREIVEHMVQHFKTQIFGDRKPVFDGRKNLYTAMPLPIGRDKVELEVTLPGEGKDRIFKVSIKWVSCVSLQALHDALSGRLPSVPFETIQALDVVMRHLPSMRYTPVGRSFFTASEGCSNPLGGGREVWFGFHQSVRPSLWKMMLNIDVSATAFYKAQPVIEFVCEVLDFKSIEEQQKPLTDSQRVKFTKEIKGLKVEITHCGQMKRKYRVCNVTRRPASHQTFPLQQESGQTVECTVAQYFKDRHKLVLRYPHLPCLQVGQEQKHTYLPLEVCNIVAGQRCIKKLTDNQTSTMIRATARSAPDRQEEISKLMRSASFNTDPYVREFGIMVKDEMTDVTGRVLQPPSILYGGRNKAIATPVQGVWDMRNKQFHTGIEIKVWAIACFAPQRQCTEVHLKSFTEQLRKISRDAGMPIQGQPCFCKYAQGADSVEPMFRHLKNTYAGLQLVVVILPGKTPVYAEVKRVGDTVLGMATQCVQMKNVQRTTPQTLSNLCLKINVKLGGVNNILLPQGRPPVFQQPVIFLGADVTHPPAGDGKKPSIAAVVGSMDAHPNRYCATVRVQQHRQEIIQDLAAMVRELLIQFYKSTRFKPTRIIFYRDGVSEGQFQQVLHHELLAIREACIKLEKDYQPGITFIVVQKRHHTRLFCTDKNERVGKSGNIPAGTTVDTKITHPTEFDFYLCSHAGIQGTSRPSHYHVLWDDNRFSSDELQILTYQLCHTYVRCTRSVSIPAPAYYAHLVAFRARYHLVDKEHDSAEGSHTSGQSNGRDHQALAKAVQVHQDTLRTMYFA
Source text: as §2, with “antibodies. […]” for “antibodies.”

Molecule | apoptosis of MECs (PyMT;Mtdh−/− pMECs) | SND1 protein levels (SND1 [1]) | SND1-binding of MTDH fragments and triple mutants, in vitro (SND1 [2]) | interaction of full-length MTDH (WT or mutant) with HA-SND1 (SND1 [3]) | interaction of MTDH mutants with AGO2 (AGO2)
CC[C@@]1(O)C(=O)OCc2c1cc1n(c2=O)Cc2cc3ccccc3nc2-1 [CPT, camptothecin] | induced apoptosis of MECs in a dosage-dependent manner | drug dosage-dependent decrease of SND1 protein levels |  |  | 
TPM1: MTDH triple-point mutant D389R, D393R and W394D (protein, left off: a dimerising Fc or GST, MTDH triple-point mutant D389R, D393R and W394D) YQWDVSRNQPYIDDEWSGLNGLSSARPNSRDNAPAEEWGNWVDEERASLLKSQEPIPDDQKVSDDDKEKGEGALPTGKSKKKKKKKKKQGEDNSTAQDTEELEKEIREDLPVNTSKTRPKQEKAFSLKTISTSDPAEVLVKNSQPIKTLPPATSTEPSVILSKSDSDKSSSQVPPILQETDKSKSNTKQNSVPPSQTKSETSWESPKQIKKKKKARRET |  |  | could not bind | not | still able to interact with AGO2
TPM2: MTDH triple-point mutant E399R, E400R and W401D (protein, left off: a dimerising Fc or GST, MTDH triple-point mutant E399R, E400R and W401D) YQWDVSRNQPYIDDEWSGLNGLSSADPNSDWNAPARRDGNWVDEERASLLKSQEPIPDDQKVSDDDKEKGEGALPTGKSKKKKKKKKKQGEDNSTAQDTEELEKEIREDLPVNTSKTRPKQEKAFSLKTISTSDPAEVLVKNSQPIKTLPPATSTEPSVILSKSDSDKSSSQVPPILQETDKSKSNTKQNSVPPSQTKSETSWESPKQIKKKKKARRET |  |  | could not bind | not | still able to interact with AGO2
